Columns and labels:
[1] = CD thermal denaturation of GOLPH3 proteins; format: physicochemical, human; details: CD at 207 nm, 20 to 95 °C at 1 °C/min, 10 μM protein, 100 mM NaCl, 50 mM Tris pH 7.4, 1 mM TCEP
Procedure: (§1) Supplemental Material for Theodoropoulou, Nasrallah, et al 2026
Isothermal titration calorimetry
Isothermal titration calorimetry (ITC) experiments were performed on a MicroCal PEAQ-ITC (Malvern Panalytical), with GOLPH3 variants being in a buffer containing 250 mM NaCl, 50 mM Tris pH 8.0 and 1 mM TCEP. LCS peptides were synthesised and delivered as lyophilised powder (Genscript). The peptides were dissolved in the protein buffer and their concentrations were calculated based upon their absorbance at 280 nm and their corresponding molar extinction coefficient. Experiments consisted of titrations of a single 0.4 µL injection followed […]
GOLPH3 proteins at a 100 μM concentration. Experiments were performed at 25 °C in triplicate (n = 3), with injection duration of 4 s, injection spacing of 150 s, stir speed of 750 rpm, and reference power of 7 μcal/s. Data were processed and plotted using MicroCal PEAQ‐ITC Analysis Software and fitted to a one‐site binding model.
(§2) Circular Dichroism Spectroscopy
(§3) Circular Dichroism Spectra of GOLPH3 proteins (at 10 μM in 100 mM NaCl, 50 mM Tris pH 7.4 and 1 mM TCEP) were collected with a Chirascan V100 (AppliedPhotophysics), using a 1 mm path length cuvette, at 20 °C, in the 200-260 nm range. Thermal denaturation experiments […]
(§4) every 1 °C, with a temperature ramp speed of 1 °C/min and an equilibration time of […]

[2] = CD secondary structure of GOLPH3 proteins (BestSel fits); format: physicochemical, human; details: 10 μM, 100 mM NaCl, 50 mM Tris pH 7.4, 1 mM TCEP, 20 °C
Procedure: as §1
Isothermal titration calorimetry […]
as §2, §3, §4
Table S2: Fits of CD spectra to fractions of secondary structure for Golph3 WT and various mutants of it, carried out with the BestSel server

[3] = SEC-MALS of GOLPH3 constructs; format: physicochemical, human; details: 12 mg/mL, 250 mM NaCl, 50 mM Tris pH 8.0, 1 mM TCEP
Procedure: Supplemental Material for Theodoropoulou, Nasrallah, et al 2026 buffer. Pooled fractions were concentrated to the required concentration using a MWCO concentrator (Millipore) with a cutoff of 10 kDa.
Size exclusion chromatography coupled to multi-angle light scattering
The molecular weights of the tested constructs were determined by size exclusion chromatography coupled to multi-angle light scattering (SEC-MALS). The mass measurements were performed on a UltiMate3000 HPLC system equipped with a 3 angles miniDAWN TREOS static light scattering detector (Wyatt Technology). The sample volumes of 5−10 μl at a concentration of 12 mg/mL, were applied to a Superdex 200 5/150 GL column (Cytiva) previously equilibrated with 250 mM NaCl, 50 mM Tris pH 8.0, 1 mM TCEP at a flow rate of 0.08 mL/min. The data were analyzed using the ASTRA 6.1 software package (Wyatt technology), using the absorbance at 280 nm and the theoretical extinction coefficient for concentration measurements.
Nuclear Magnetic Resonance (NMR) Spectroscopy
All proteins used for NMR experiments were designed on the GOLPH3-4G background due to its higher stability and solubility. Recombinant proteins were prepared with the isotope enrichment scheme appropriate for each experiment (i.e. 15N-only or 15N, 13C) in 20 mM MES buffer pH 6.5 with 250 mM NaCl and 10% 2H2O. Lower salt, even by 10%, yielded much degraded spectra. […]

GOLPH3 = assay: Click-PEG metabolic labeling of GOLPH3 S-acylation; format: cell-based, human; details: HeLa, 4 hours
Procedure: Cells are washed twice with serum-free medium with 1 mg/ml BSA and incubated indicated times with either 100 µM palmitic acid azide or 100uM unlabeled palmitic acid (control). Cells are washed 3 times with cold PBS and lysed in 50 mM Tris-HCl (pH 8.0) and 0.5% SDS. Cell lysates are subjected to click reaction with 5 kDa mPEG-Alkyne, CuSO4, TBTA and ascorbic acid for 1 h at room temperature. Samples are boiled with 4x SDS with BME sample buffer, and analyzed by WB on reducing condition on 4–20% SDS-PAGE gels.

PI4KIIIβ = assay: GOLPH3 Golgi localization upon PtdIns(4)P depletion by PIK93; format: cell-based, human; details: 1 h
Procedure: Immunofluorescence and confocal microscopy
HeLa GOLPH3-KO cells transfected with the different GOLPH3 constructs were plated at approximately 50% confluency post-transfection. Cells were washed with PBS, fixed in 4% paraformaldehyde (PFA) for 20 minutes, washed with PBS, quenched with 50 mM NH4Cl for 10 minutes, and washed again with PBS. Cells were permeabilized with 0.05% saponin in PBS for 5 minutes. Subsequently, cells were washed and blocked with 3% BSA and 0.05% saponin in PBS for 30 minutes. Primary antibodies (anti-GOLPH3 and anti-GM130) and secondary antibodies were diluted in the same buffer. After blocking, coverslips were washed and incubated with primary antibodies overnight at 4 °C, washed in PBS, and incubated for 45 minutes with secondary antibodies. Cells were then washed and stained with Hoechst for nuclear visualization. Finally, coverslips were mounted in Prolong Glass Antifade Mountant.
Images were acquired using a Zeiss LSM 980 Inverted microscope with a 63X objective, a pinhole size of 1 AU and at least 2 line-averaging or alternatively using Oympus Evident FV4000. Super-resolution images were taken using Zeiss LSM980 with Airyscan2 module, with 63×oil-immersion objectives. Images were processed using Fiji (ImageJ). Cis-to-trans Golgi linescans were recorded using the “Color Profiler” plugin (Color_Profiler. jar, https://imagej.nih.gov/ij/plugins/color -profiler.html) in Fiji software. […]
Figure S5. GOLPH3 regulation by S-acylation
A. Immunofluorescence analysis of GOLPH3 Golgi localization upon acute PtdIns(4)P depletion.
GOLPH3-KO HeLa cells expressing CERT-GFP (cyan) or GOLPH3 variants (yellow) were treated with increasing concentrations of PIK93 for 1 h. Golgi localization, assessed by colocalization with GM130 (magenta), is highlighted in the insets. Scale bar, 5 µm. […]

GOLPH3 WT: recombinant human GOLPH3 (Q9H4A6, residues 52-298)
Tm / melting temperature [1]: 52.5 °C
% alpha [2]: 41%
% beta parallel [2]: 0%
% beta-antiparallel [2]: 7%
% others [2]: 36%
% turn [2]: 16%
oligomeric state [3]: monomeric

COc1ccc(N2CCN(C(=O)c3cc4c(s3)-c3ccccc3S(=O)(=O)C4)CC2)cc1 [ML349]
click-PEG signal upon ML348/ML349 (GOLPH3; 10 µM): increased the click-PEG signal

CCCCCCCCCC[C@@H]1C(=O)O[C@H]1CCc1ccc(OC)c(OC)c1 [Palmostatin B]
click-PEG signal upon Palmostatin B (GOLPH3; 50 µM): increased the click-PEG signal

CC(=O)Nc1nc(C)c(-c2ccc(Cl)c(S(=O)(=O)NCCO)c2)s1 [PIK93]
effect of PIK93 on localization of CERT (PI4KIIIβ; CERT-GFP, HeLa): completely relocate CERT to the cytosol
effect of PIK93 on Golgi localization of GOLPH3-C84A (PI4KIIIβ; GOLPH3-KO HeLa expressing C84A): sensitive to PIK93
effect of PIK93 on Golgi localization of GOLPH3 WT (PI4KIIIβ; GOLPH3-KO HeLa expressing GOLPH3 WT, increasing PIK93 concentrations, versus CERT): significantly more resistant to PtdIns(4)P depletion
effect of PIK93 on Golgi localization of GOLPH3-R90L (PI4KIIIβ; GOLPH3-KO HeLa expressing R90L): insensitive to PIK93
effect of PIK93 on Golgi localization of GOLPH3 mutated at Cys108 and Cys122 (PI4KIIIβ; GOLPH3-KO HeLa): strongly Golgi-associated, PIK93-insensitive form

Reference: publication PMC13408441, “Molecular regulation and physiological role of GOLPH3-mediated Golgi retention” (Nature Communications, 2026)
